Our source for the IC50 values is patent US20240018188A1.

[ ]: non-standard residue; d: D form. dNle = CCCC[C@@H](N)C(=O)O

The assay has as its target human RAD51 (human) (UniProt Q06609). Put plainly: cell-based or functional assay.

Sequence of human RAD51 (human) (Q06609 2-339 limits assumed): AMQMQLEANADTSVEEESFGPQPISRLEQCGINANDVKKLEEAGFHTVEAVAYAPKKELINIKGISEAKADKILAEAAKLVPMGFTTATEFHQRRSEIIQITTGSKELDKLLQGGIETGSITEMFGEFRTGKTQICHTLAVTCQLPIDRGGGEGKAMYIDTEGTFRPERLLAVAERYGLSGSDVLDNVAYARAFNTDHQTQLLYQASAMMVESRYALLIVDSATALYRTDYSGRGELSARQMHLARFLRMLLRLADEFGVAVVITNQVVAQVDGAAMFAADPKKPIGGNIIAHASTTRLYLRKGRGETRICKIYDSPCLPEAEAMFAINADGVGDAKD

B1: Compound 9 (peptide)
peptide: Ac-[dL][dNle][dR][dS][dV][dR][dL][dR][dV]G[dL][dR][dK][dR][dR][dR][dR][dR][dR][dR]-NH2
SMILES: CCCC[C@@H](NC(=O)[C@@H](CC(C)C)NC(C)=O)C(=O)N[C@H](CCCNC(=N)N)C(=O)N[C@H](CO)C(=O)N[C@@H](C(=O)N[C@H](CCCNC(=N)N)C(=O)N[C@H](CC(C)C)C(=O)N[C@H](CCCNC(=N)N)C(=O)N[C@@H](C(=O)NCC(=O)N[C@H](CC(C)C)C(=O)N[C@H](CCCNC(=N)N)C(=O)N[C@H](CCCCN)C(=O)N[C@H](CCCNC(=N)N)C(=O)N[C@H](CCCNC(=N)N)C(=O)N[C@H](CCCNC(=N)N)C(=O)N[C@H](CCCNC(=N)N)C(=O)N[C@H](CCCNC(=N)N)C(=O)N[C@H](CCCNC(=N)N)C(=O)N[C@H](CCCNC(=N)N)C(N)=O)C(C)C)C(C)C
The term IC50 denotes the concentration at which inhibition is half-maximal. Read a high IC50 as weaker potency. Regarding B1, the IC50 is 20 µM.

B2: Compound 11 (peptide)
peptide: Ac-[dL][dNle][dR]G[dV][dR][dL][dR][dV]G[dL][dR][dK][dR][dR][dR][dR]G[dY]-NH2
SMILES: CCCC[C@@H](NC(=O)[C@@H](CC(C)C)NC(C)=O)C(=O)N[C@H](CCCNC(=N)N)C(=O)NCC(=O)N[C@@H](C(=O)N[C@H](CCCNC(=N)N)C(=O)N[C@H](CC(C)C)C(=O)N[C@H](CCCNC(=N)N)C(=O)N[C@@H](C(=O)NCC(=O)N[C@H](CC(C)C)C(=O)N[C@H](CCCNC(=N)N)C(=O)N[C@H](CCCCN)C(=O)N[C@H](CCCNC(=N)N)C(=O)N[C@H](CCCNC(=N)N)C(=O)N[C@H](CCCNC(=N)N)C(=O)N[C@H](CCCNC(=N)N)C(=O)NCC(=O)N[C@H](Cc1ccc(O)cc1)C(N)=O)C(C)C)C(C)C
Regarding B2, the IC50 was found to be 9 µM.
